Test results: US20140363808, “[…] […] METHOD BASED ON […] WITHOUT TARGET IMMOBILIZATION AND THE […] OBTAINED FROM THE METHOD” (KOREA UNIVERSITY RESEARCH AND BUSINESS FOUNDATION, published 2014)

B1: G4 (ssDNA)
DNA: CGTACGGAATTCGCTAGCGTGATGTGGGGGTACGCTCGTGGCAGGCTTGGATCCGAGCTCCACGTG
B2: G9 (ssDNA)
DNA: CGTACGGAATTCGCTAGCGGGGATGGGCCGCTCTGCAGAATGTTCTGTGGATCCGAGCTCCACGTG
B3: G37 (ssDNA)
DNA: CGTACGGAATTCGCTAGCGGGCGATGTGCGGAATGTGGGATTGCGGGTGGATCCGAGCTCCACGTG
B4: G15 (ssDNA)
DNA: CGTACGGAATTCGCTAGCAGCCGGCGGGTGCTCAATGTTGGGGGTTGGGATCCGAGCTCCACGTG
B5: G12 (ssDNA)
DNA: CGTACGGAATTCGCTAGCGGGTGCCGTGGCACGAGGCCGTGGTCCAGGGGATCCGAGCTCCACGTG
B6: G54 (ssDNA)
DNA: CGTACGGAATTCGCTAGCGTGGCGGGGCGCGGGTGCCGGAGTTGATGTGGATCCGAGCTCCACGTG
B7: G39 (ssDNA)
DNA: CGTACGGAATTCGCTAGCGGTTGCCGTGCGGCGTGCGAGTTGGGCCTTGGATCCGAGCTCCACGTG
B8: G26 (ssDNA)
DNA: CGTACGGAATTCGCTAGCATCGGGTGCAGAGTCGGAGCTAACGGCAGCGGATCCGAGCTCCACGTG
B9: G27 (ssDNA)
DNA: CGTACGGAATTCGCTAGCGGGTGGAGTACGTGGGGGTCATCCTGTGTGGGATCCGAGCTCCACGTG
B10: G32 (ssDNA)
DNA: CGTACGGAATTCGCTAGCGTGGACTGGCGGAAATCTTGGTATGCCCATGGATCCGAGCTCCACGTG
B11: G21 (ssDNA)
DNA: CGTACGGAATTCGCTAGCGGGTTCGGGACGGATGAACGTGATAGCTGAGGATCCGAGCTCCACGTG
B12: G56 (ssDNA)
DNA: CGTACGGAATTCGCTAGCCCGTGGGGTAGCGGGGTCGTGTGATATGTGGATCCGAGCTCCACGTG
B13: G40 (ssDNA)
DNA: CGTACGGAATTCGCTAGCCGGGGTGGGAACCAGTCTTGCGCGGGTGACGGATCCGAGCTCCACGTG
B14: G35 (ssDNA)
DNA: CGTACGGAATTCGCTAGCGGTGACGGACGTGGGGTGCACGAAGGGAGGGGATCCGAGCTCCACGTG
B15: G55 (ssDNA)
DNA: CGTACGGAATTCGCTAGCGGACTGGAGTCTAGACCGGGTAGCTGTGGTGGATCCGAGCTCCACGTG

Each binder was assayed against T1, Nampt (nicotinamide phosphoribosyltransferase) (UniProt P43490 P43490:1-491) (assay: SPR; 200 nM Nampt). Conditions: tags: AdipoGen AG-40A-0031; chain copies: 2.
Method: An experiment showing that 15 kinds of aptamers strongly bound to Nampt were not bound to other blood proteins but specifically bound to Nampt only was carried out by immobilizing aptamers onto a gold chip with a surface […] resonance device (SPR).
Firstly, a carboxyl group (—COOH) was formed on a surface of a gold chip with 50 mM of 3,3′-dithiodipropionic acid, and a self-assembly monolayer was formed with EDC/NHS. Then, streptavidin was immobilized thereon, and each aptamer bound to biotin was immobilized. Herein, 200 nM Nampt and the controls, i.e., RBP4, adiponectin, resistin, vaspin, and HAS, were reacted for 30 minutes in respective buffer solutions (100 mM NaCl, 2 mM MgCl₂, 5 mM KCl, 1 mM CaCl₂, and 20 mM Tris-Cl buffer solution containing 0.02% Tween 20, pH 7.6), and non-bound proteins were washed off with the same buffer solutions.

T1 sequence (P43490 whole entry, one chain of several): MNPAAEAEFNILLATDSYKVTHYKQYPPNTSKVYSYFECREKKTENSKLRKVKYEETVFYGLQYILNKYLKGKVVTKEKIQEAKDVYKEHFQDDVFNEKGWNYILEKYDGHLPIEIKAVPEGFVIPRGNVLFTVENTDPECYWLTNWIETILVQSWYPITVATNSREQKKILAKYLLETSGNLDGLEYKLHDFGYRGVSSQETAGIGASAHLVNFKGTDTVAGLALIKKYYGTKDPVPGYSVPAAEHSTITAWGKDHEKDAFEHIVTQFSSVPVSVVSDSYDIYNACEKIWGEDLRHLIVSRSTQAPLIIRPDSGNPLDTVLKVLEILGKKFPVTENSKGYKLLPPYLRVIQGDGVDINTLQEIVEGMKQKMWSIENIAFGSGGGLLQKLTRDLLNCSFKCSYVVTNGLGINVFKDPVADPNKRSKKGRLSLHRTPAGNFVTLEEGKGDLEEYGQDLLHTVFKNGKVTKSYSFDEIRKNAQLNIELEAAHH

Binder	binding result
B1	binds
B2	binds
B3	binds
B4	binds
B5	binds
B6	binds
B7	binds
B8	binds
B9	binds
B10	binds
B11	binds
B12	binds

The binders below were run against T1, Nampt (nicotinamide …) (assay: SPR; aptamer immobilized; same buffer pH 7.6). Conditions: tags: AdipoGen AG-40A-0031; chain copies: 2.
Method: (§1) Aptamers G35, G40, and G55 had the highest specificity and binding force among the 15 kinds of aptamers specifically bound to Nampt and produced in Example 1. Binding of these aptamers with respect to Nampt was analyzed. The aptamers were immobilized onto a gold chip in the same manner as described above, and Nampt at various concentrations of 20 nM to 400 nM was reacted for 30 minutes in buffer solutions (100 mM NaCl, 2 mM MgCl₂, 5 mM KCl, 1 mM CaCl₂, and 20 mM Tris-Cl buffer solution containing 0.02% Tween 20, pH 7.6). In order to obtain a dissociation constant, each reaction level was plotted by a nonlinear regression method and a single site saturation ligand binding method with Graphpad Prism 5.0. In this case, the equation Y=Bₘₐₓ*X̂h/(Kd̂h+X̂h) was used (y represents a saturation degree, Bₘₐₓ represents a maximal binding site, Kd represents a dissociation constant, X represents non-bound Nampt, and h represents a hill slope constant).

Binder	Kd
B13	114 nM
B14	117 nM

Each binder was assayed against T1, Nampt (nicotinamide …) (assay: SPR; aptamer immobilized; 100 mM NaCl, 2 mM MgCl2, 5 mM KCl, 1 mM CaCl2, 20 mM Tris, 0.02% Tween 20, pH 7.6). Conditions: tags: AdipoGen AG-40A-0031; chain copies: 2.
Method: as §1

Binder	Kd
B15	71.7 nM
